Measured values: paper PMC12828769

Target: Human Angiotensin-converting enzyme 2 (ACE2) (human)
Assay: MST; Monolith NT.115, standard glass capillaries; ACE2 labelled with NT-647 (NHS ester); ACE2 serially diluted across 16 tubes in 10 mM phosphate buffer pH 7.4, mixed 1:1 with RBDs or RBDdopa's, 15 min at RT; 40-60% MST power; apparent KD

“Native SARS-CoV-2 RBD (Arg319-Phe541) without any mutation (domain or fragment; other documents disagree on this pair)” gave a Kd of 5.4 µM.
